B1: COV2-2164 (antibody, V domains shown)
VH: QVQLVQSGAEVKKPGSSVKVSCKASGGTFSSYAISWVRQAPGQGLEWMGGIIPIFGTANYAQKFQGRVTITADESTSTGYMQLSSLRFEDTAVYYCARTSHYDSSGSYFEYWGQGTLVTVSS
VL: EIVLTQSPATLSLSPGERATLSCRASQSVSSYLAWYQQKPGQAPRLLIYDASNRATGIPARFSGSGSGTDFTLTISSLEPEDFAVYYCHKRSNWPPSLTFGGGTKVEIK
B2: CnC2t1p1_B10 (antibody, V domains shown)
VH: QVQLVQSGAEVKKPGSSVKVSCKASGGTFSSYAISWVRQAPGQGLEWMGGIIPIFGTANYAQKFQGRVTITADKSTSTAYMELSSLRSEDTAVYYCARVSGYDSSGYWGDYWGQGTLVTVSS
VL: EIVLTQSPATLSLSPGERATLSCRASQSVSSYLAWYQQKPGQAPRLLIYDASNRATGIPARFSGSGSGTDFTLTISSLEPEDFAVYYCQQRSNWPPALTFGGGTKVEIK
B3: COV2-2531 (antibody, V domains shown)
VH: QVQLQESGPGLVKPSETLSLTCSVSGGSIRSYFWNWVRQPPGKGLEWIGYIYYSGSTNYKPSFKSRVTISLDTSKNQISLKLSSVTAADTAVYYCARATWLRDAFGIWGQGTMVTVSS
VL: NFMLTQPHSVSESPGKTVTISCTGNSGSIASNYVQWYQQRPGSAPTTVIYEDSQRPSGVPDRFSGSIDSSSNSASLTISGLKTEDEADYYCQSFDSGNVVFGGGTKLTVL
B4: C126 (antibody, V domains shown)
VH: QVQLQESGPGLVKPSETLSLSCAVSGGSIGSYFWSWIRQPPGKGLEWIGYLHYSGSTNYNPSLKSRVTISVDTSKNQFSLKLSSVTAADTAVYYCARLQWLRGAFDIWGQGTMVTVSS
VL: NFMLTQPHSVSESPGKTVTISCTGSSGSIASNYVQWYQQRPGSAPTTVINEDNQRPSGVPDRFSGSIDSSSNSASLTISGLKTEDEADYYCQSYDSSNLVFGGGTKLTVL
B5: group 3 germline revertant (antibody, V domains shown)
VH: QVQLQESGPGLVKPSETLSLTCTVSGGSISSYYWSWIRQPPGKGLEWIGYIYYSGSTNYNPSLKSRVTISVDTSKNQFSLKLSSVTAADTAVYYCARATWLRDAFGIWGQGTMVTVSS
VL: NFMLTQPHSVSESPGKTVTISCTGSSGSIASNYVQWYQQRPGSAPTTVIYEDNQRPSGVPDRFSGSIDSSSNSASLTISGLKTEDEADYYCQSYDSSNVVFGGGTKLTVL
B6: COV2-2002 (antibody, V domains shown)
VH: EVQLVESGGGLVQPGGSLRLSCAASGFTFSFYWMSWVRQAPGKGLEWVANIKQDGSEKYYVDSVKGRSTISRDNAKNSLYLQMNSLRAEDTAVYYCARVGSSSWYFDYWGQGTLVTVSS
VL: not shown
B7: COV2-2333 (antibody, V domains shown)
VH: EVQLVESGGGLVQPGGSLRLSCAASGFTFSIYWMSWVRQAPGKGLQWVANIKQDASEKYYVDSVKGRFTISRDNAKNSLYLQMNSLRAEDTAVYYCARLGGSSWHFDYWGQGTLVTVSS
VL: SYELTQPPSVSVSPGQTASITCSGDKLGDKYSSWYQQKPGQSPVLVIYEDTKRPSGIPERFSGSNSGNTATLTISGTQAMDEADYYCQAWSSSTAVFGGGTKLTVL

Experiments:
[1] = target: recombinant stabilized trimeric prefusion ectodomain of the SARS-CoV-2 S protein (S6P_(ecto)) (SARS-CoV-2, UniProt P0DTC2)
[2] = target: S protein C-terminal S2 region expressed on HEK293T cells (SARS-CoV-2, Wuhan-Hu-1, UniProt P0DTC2); assay: flow cytometry on cells
SARS-CoV-2 RBD = SARS-CoV-2 RBD (SARS-CoV-2, Wuhan-Hu-1 (assumed), UniProt P0DTC2); assay: ELISA

Binder	binding result [2]	binding result (SARS-CoV-2 RBD)	other results
B1			binding result [1]: binds
B2	binds		
B3		binds	
B4		binds	
B5		binds	
B6	binds		
B7	binds		

From paper PMC8352653 (Cell Reports, 2021)
